Results on 2 molecules are retold here after US20250248376A1 (University of Texas, published 2025).

The target in the assay is T1, Contactin (mouse Cntn1) (mouse, UniProt P12960 21-1001).
T1 construct: whole, on cells; One entry covers both endogenous spinal cord Contactin and Contactin transfected into HEK cells; It was immunoprecipitated from lysates with anti-Contactin antibodies; also called Contactin/F3
T1 sequence (looked up): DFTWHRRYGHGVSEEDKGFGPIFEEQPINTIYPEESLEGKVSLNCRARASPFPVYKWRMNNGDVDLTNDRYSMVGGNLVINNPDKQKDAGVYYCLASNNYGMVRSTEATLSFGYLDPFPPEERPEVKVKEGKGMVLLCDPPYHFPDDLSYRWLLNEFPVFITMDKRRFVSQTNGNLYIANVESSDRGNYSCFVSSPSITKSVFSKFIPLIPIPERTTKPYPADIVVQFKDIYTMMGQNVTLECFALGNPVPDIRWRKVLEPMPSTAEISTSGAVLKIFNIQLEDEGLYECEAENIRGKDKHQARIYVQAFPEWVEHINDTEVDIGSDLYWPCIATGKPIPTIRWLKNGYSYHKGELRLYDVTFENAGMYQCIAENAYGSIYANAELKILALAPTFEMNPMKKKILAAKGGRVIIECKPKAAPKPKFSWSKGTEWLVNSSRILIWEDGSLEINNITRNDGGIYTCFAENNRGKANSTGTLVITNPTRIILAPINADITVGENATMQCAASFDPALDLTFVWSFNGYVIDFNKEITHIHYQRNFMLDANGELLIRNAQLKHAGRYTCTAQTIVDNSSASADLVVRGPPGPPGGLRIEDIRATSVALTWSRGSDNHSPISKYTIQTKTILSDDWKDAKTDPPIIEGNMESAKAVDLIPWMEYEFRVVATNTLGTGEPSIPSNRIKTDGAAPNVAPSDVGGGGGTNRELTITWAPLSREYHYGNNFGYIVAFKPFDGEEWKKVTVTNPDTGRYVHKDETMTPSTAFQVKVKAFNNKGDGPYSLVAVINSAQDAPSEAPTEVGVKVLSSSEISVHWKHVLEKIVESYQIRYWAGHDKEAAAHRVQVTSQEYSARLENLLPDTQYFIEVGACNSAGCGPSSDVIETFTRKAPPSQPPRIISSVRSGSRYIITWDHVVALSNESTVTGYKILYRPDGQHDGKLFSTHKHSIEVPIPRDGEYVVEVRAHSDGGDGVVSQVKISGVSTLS
The assay can be described thus: co-IP with anti-Contactin antibodies from lysates of HEK cells co-transfected with Contactin, immunoblot for Cntnap1 (FIG. 17J). The text has this: After confirming the mutations, the wild-type Cntnap1, Cntnap1C^C324R or […] cDNAs and Contactin cDNA (MG50933-CF, SinoBiological) were co-transfected into HEK cells. Contactin surface expression was examined by immunostaining of live, non-permeabilized HEK cells followed by fixation and permeabilization and immunostaining with an anti-Cntnap1 antibody to detect the expression of Cntnap1. The wild-type Cntnap1 protein was readily localized at the cell surface of the HEK cells (FIGS. 17Ga, c), however, the surface localization of Cntnap1^C324R (FIGS. 17Ha, c), and Cntnap1^R765c (FIGS. 17Ia, c) mutant proteins was strongly affected. […] The Cntnap1 protein expression was mostly cytosolic in both Cntnap1^C324R or Cntnap1^R765C transfected HEK cells as was the Contactin localization. […] IP of cell lysates from HEK cells that co-expressed the wild-type Cntnap1, Cntnap1^C324R and Cntnap1^R765C proteins and Contactin was also carried out. The expression levels of these proteins were similar in HEK cells transfected with respective expression constructs (FIG. 17J, input).
Background: A western blot detects proteins with antibodies after separation by electrophoresis.

B1: Cntnap1^C324R mutant expressed in HEK cells (site-directed mutant of pCMV-Cntnap1^Flag) (receptor)
chain: WGYYGCNEELVGPLYARSLGASSYYGLFTTARFARLHGISGWSPRIGDPNPWLQIDLMKKHRIRAVATQGAFNSWDWVTRYMLLYGDRVDSWTPFYQKGHNATFFGNVNDSAVVRHDLHYHFTARYIRIVPLAWNPRGKIGLRLGIYGCPYTSSILYFDGDDAISYRFQRGASQSLWDVFAFSFKTEEKDGLLLHTEGSQGDYVTLELQGAHLLLHMSLGSSPIQPRPGHTTVSLGGVLNDLSWHYVRVDRYGRDANFTLDGYAHHFVLNGDFERLNLENEIFIGGLVGAARKNLAYRHNFRGRIENVIYNRINIAEMAVMRHSRITFEGNVAFRCLDPVPHPINFGGPHNFVQVPGFPRRGRLAVSFRFRTWDLTGLLLFSHLGDGLGHVELMLSEGQVNVSIAQTGRKKLQFAAGYRLNDGFWHEVNFVAQENHAVISIDDVEGAEVRVSYPLLIRTGTSYFFGGCPKPASRWGCHSNQTAFHGCMELLKVDGQLVNLTLVEFRKLGYFAEVLFDTCGITDRCSPNMCEHDGRCYQSWDDFICYCELTGYKGVTCHEPLYKESCEAYRLSGKYSGNYTIDPDGSGPLKPFVVYCDIRENRAWTVVRHDRLWTTRVTGSSMDRPFLGAIQYWNASWEEVSALANASQHCEQWIEFSCYNSRLLNTAGGYPYSFWIGRNEEQHFYWGGSQPGIQRCACGLDQSCVDPALHCNCDADQPQWRTDKGLLTFVDHLPVTQVVVGDTNRSNSEAQFFLRPLRCYGDRNSWNTISFHTGAALRFPPIRANHSLDVSFYFRTSAPSGVFLENMGGPFCRWRRPYVRVELNTSRDVVFAFDIGNGDENLTVHSDDFEFNDDEWHLVRAEINVKQARLRVDHRPWVLRPMPLQTYIWLVYDQPLYVGSAELKRRPFVGCLRAMRLNGVTLNLEGRANASEGTFPNCTGHCTHPRFPCFHGGRCVERYSYYTCDCDLTAFDGPYCNHDIGGFFETGTWMRYNLQSALRSAAREFSHMLSRPVPGYEPGYVPGYDTPGYVPGYHGPGYRLPEYPRPGRPVPGYRGPVYNVTGEEVSFSFSTNSAPAVLLYVSSFVRDYMAVLIKEDGTLQLRYQLGTSPYVYQLTTRPVTDGQPHSVNITRVYRNLFIQVDYFPLTEQKFSLLVDSQLDSPKALYLGRVMETGVIDPEIQRYNTPGFSGCLSGVRFNNVAPLKTHFRTPRPMTAELAEAMRVQGELSESNCGAMPRLVSEVPPELDPWYLPPDFPYYHDDGWIAILLGFLVAFLLLGLVGMLVLFYLQNHRYKGSYHTNEPKATHDSHPGGKAPLPPSGPAQAPAPTPAPTQLPTPAPAPAPAPASGPGPRDQNLPQILEESRSE
notes: Co-transfected with Contactin cDNA; the co-IP was done on total cell lysates; also called Mouse Cntnap1^C324R clone; not shown: Flag tag inherited from pCMV-Cntnap1^Flag
On to B1, for which the “level of Cntnap1 co-immunoprecipitated with Contactin, relative to wild-type Cntnap1” value turned out to be 60%.

B2: Cntnap1^R765C mutant expressed in HEK cells (site-directed mutant of pCMV-Cntnap1^Flag) (receptor)
chain: WGYYGCNEELVGPLYARSLGASSYYGLFTTARFARLHGISGWSPRIGDPNPWLQIDLMKKHRIRAVATQGAFNSWDWVTRYMLLYGDRVDSWTPFYQKGHNATFFGNVNDSAVVRHDLHYHFTARYIRIVPLAWNPRGKIGLRLGIYGCPYTSSILYFDGDDAISYRFQRGASQSLWDVFAFSFKTEEKDGLLLHTEGSQGDYVTLELQGAHLLLHMSLGSSPIQPRPGHTTVSLGGVLNDLSWHYVRVDRYGRDANFTLDGYAHHFVLNGDFERLNLENEIFIGGLVGAARKNLAYRHNFRGCIENVIYNRINIAEMAVMRHSRITFEGNVAFRCLDPVPHPINFGGPHNFVQVPGFPRRGRLAVSFRFRTWDLTGLLLFSHLGDGLGHVELMLSEGQVNVSIAQTGRKKLQFAAGYRLNDGFWHEVNFVAQENHAVISIDDVEGAEVRVSYPLLIRTGTSYFFGGCPKPASRWGCHSNQTAFHGCMELLKVDGQLVNLTLVEFRKLGYFAEVLFDTCGITDRCSPNMCEHDGRCYQSWDDFICYCELTGYKGVTCHEPLYKESCEAYRLSGKYSGNYTIDPDGSGPLKPFVVYCDIRENRAWTVVRHDRLWTTRVTGSSMDRPFLGAIQYWNASWEEVSALANASQHCEQWIEFSCYNSRLLNTAGGYPYSFWIGRNEEQHFYWGGSQPGIQRCACGLDQSCVDPALHCNCDADQPQWRTDKGLLTFVDHLPVTQVVVGDTNCSNSEAQFFLRPLRCYGDRNSWNTISFHTGAALRFPPIRANHSLDVSFYFRTSAPSGVFLENMGGPFCRWRRPYVRVELNTSRDVVFAFDIGNGDENLTVHSDDFEFNDDEWHLVRAEINVKQARLRVDHRPWVLRPMPLQTYIWLVYDQPLYVGSAELKRRPFVGCLRAMRLNGVTLNLEGRANASEGTFPNCTGHCTHPRFPCFHGGRCVERYSYYTCDCDLTAFDGPYCNHDIGGFFETGTWMRYNLQSALRSAAREFSHMLSRPVPGYEPGYVPGYDTPGYVPGYHGPGYRLPEYPRPGRPVPGYRGPVYNVTGEEVSFSFSTNSAPAVLLYVSSFVRDYMAVLIKEDGTLQLRYQLGTSPYVYQLTTRPVTDGQPHSVNITRVYRNLFIQVDYFPLTEQKFSLLVDSQLDSPKALYLGRVMETGVIDPEIQRYNTPGFSGCLSGVRFNNVAPLKTHFRTPRPMTAELAEAMRVQGELSESNCGAMPRLVSEVPPELDPWYLPPDFPYYHDDGWIAILLGFLVAFLLLGLVGMLVLFYLQNHRYKGSYHTNEPKATHDSHPGGKAPLPPSGPAQAPAPTPAPTQLPTPAPAPAPAPASGPGPRDQNLPQILEESRSE
notes: Co-transfected with Contactin cDNA; the co-IP was done on total cell lysates; also called Mouse Cntnap1^R765C clone; not shown: Flag tag inherited from pCMV-Cntnap1^Flag
Turning to B2, the “level of Cntnap1 co-immunoprecipitated with Contactin, relative to wild-type Cntnap1” value stood at 10%.
